According to JP2010235447A (dated 2010):
Changes are numbered by the printed parent chain. Values belong to the binder of their own block, whether it stands above or below them.

Molecular target: T1, CD36 (CD36発現細胞; pcDNA-CD36を一過性に導入した293T細胞) (human, UniProt P16671 2-472)
T1 construct: whole, on cells; also called ヒトCD36; CD36発現株
Experiment: flow cytometry of hybridoma supernatants on CD36-expressing cells

T1 sequence (P16671 2-472): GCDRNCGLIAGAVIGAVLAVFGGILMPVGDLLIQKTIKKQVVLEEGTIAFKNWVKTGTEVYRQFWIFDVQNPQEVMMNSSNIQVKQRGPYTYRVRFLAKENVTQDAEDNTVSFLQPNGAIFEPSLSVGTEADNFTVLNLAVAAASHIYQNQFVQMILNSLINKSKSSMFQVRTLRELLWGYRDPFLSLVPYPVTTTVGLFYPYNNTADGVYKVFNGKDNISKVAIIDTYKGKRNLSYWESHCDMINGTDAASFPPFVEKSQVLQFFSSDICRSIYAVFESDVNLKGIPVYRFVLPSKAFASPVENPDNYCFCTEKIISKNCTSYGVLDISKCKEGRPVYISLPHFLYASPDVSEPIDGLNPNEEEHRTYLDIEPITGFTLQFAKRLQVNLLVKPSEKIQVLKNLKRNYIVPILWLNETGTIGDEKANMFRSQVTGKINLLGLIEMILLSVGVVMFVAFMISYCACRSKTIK

binding result: binds
B3: マウス抗ヒトCD36モノクローナル抗体 クローン2-66 (antibody, mouse IgG1, V domains shown)
VH: QVQLQQPGAELVKPGASVRMSCKASGYTFTNYNMHWVKQTPGQGLEWIGVIYPGNGDTSYSQKFKGKATLTADKSSRTGYMQLSSLTSEDSAVYYCTRSGWDDWFFDVWGAGTSVTVSS
VL: DVLMTQTPLSLPVSLGDQASISCRSSQSIVQRNGITYLEWYQQKTGQSPKLLIYKVSNRFSGVPDRFSGSGSGTDFTLKISRVEAEDLGVYYCFQGSHVPPTFGGGTKLEIK
notes: also called クローン2−66; 抗CD36抗体

binding result: binds
B4: マウス抗ヒトCD36モノクローナル抗体 クローン4-62 (antibody, mouse IgG2a, V domains shown)
VH: QIHLVQSGPELKKPGETVKISCKASGYTFTNYGMNWVMQAPGKVLKWMGWINTYTGETTYADDFKGRFAFSLETSASTAYLQINSLKYEDTASYFCARDDGYSFYYDMDYWGQGTSVTVSS
VL: B3 VL with Q31H, R32T, I35N, E39Q, Q42L, T45P, R82T, P101W
notes: also called クローン4−62; 抗CD36抗体

Further lines, the binder ahead of its results:

B1: マウス抗ヒトCD36モノクローナル抗体 クローン1-3 (antibody, mouse IgG2b, V domains shown)
VH: QAQLQQSGAELVRPGASVTLSCKASGYTFTDYEMNWVKQTPVHGLEWIGAIDPEIGGSAYNQKFKGKATLTADKSSSTAYMELRSLTSEDSAVYYCTRSKLPAWFPYWGQGTLVTVSA
VL: EIKMTQSPSAMYASLGERVTITCKASQDINSYLSWFQQKPGKSPKTLIYRANRLVDGVPSRFSGSGSGQDYSLTISSLEFEDMGIYYCLQYEEFPYTFGGGTKLEIK
notes: also called クローン1−3; 抗CD36抗体
binding result: binds

B2: マウス抗ヒトCD36モノクローナル抗体 クローン1-36 (antibody, mouse IgG2b, V domains shown)
VH: QVQLQQSGAELVRPGASVKLSCKALNYTFTDYEMHWVKQTPVHGLEWIGGIHPGSGGTAYNQRFKGKATLTADKSSSTAYIEVSSLTSEDSAVYYCSLTTASAWFAYWGQGTLVTVSV
VL: B1 VL with E1D, A10S, V55L, F80Y, E92D, Y96L, G100A, I106L
notes: also called クローン1−36; 抗CD36抗体
binding result: binds
